The text below walks through data of patent US20230322930A1, “USE OF AN ANTI-PD-1 ANTIBODY AND A CYTOTOXIC ANTICANCER DRUG IN TREATMENT OF NON-SMALL CELL LUNG CANCER” (SHANGHAI JUNSHI BIOSCIENCES CO., LTD., priority 2020, published 2023).

The test system of this series is EGFR+NSCLC patients. As to the kind of experiment: Phase II clinical trial, safety study (treatment-related adverse effects). The settings on record: with pemetrexed + carboplatin; n = 40.

As for “toripalimab: anti-PD-1 humanized IgG4 mAb with light and heavy chains of SEQ ID NOs: 9 and 10; described in WO 2014206107”, the “Elevated glutamyltransferase (TRAE), incidence of grade 3-5” value is recorded as 0%; the “Elevated glutamyltransferase (TRAE), total incidence” value was “(10.0) %”; the “Influenza and other diseases (TRAE), incidence of grade 3-5” value turned out to be 0%; the “Influenza and other diseases (TRAE), total incidence” value is “(10.0) %”. The “Leukopenia (TRAE), incidence of grade 3-5” value is given as “(22.5) %”; the “Urinary tract infection (TRAE), incidence of grade 3-5” value came out at 0%; the “Urinary tract infection (TRAE), total incidence” value is “(12.5) %”.
